EC50 data for two molecules are collected here from US20250250330A1 (REVOPSIS THERAPEUTICS, published 2025).

For test [1], the target named is T1, Recombinant human VEGF165 (Peprotech, Cat #100-20) (human, UniProt P15692-4 27-191).
T1 construct: Bought protein; also called rhVEGF165; rh VEGF165
The test can be described thus: ELISA on rhVEGF165; biotinylated anti-VpreB antibody and streptavidin-HRP detection.

The target in test [2] is T2, His-tagged recombinant human ANG-2 (AcroBiosystems, Cat #AN2-H52H4) (human, UniProt O15123 275-496).
T2 construct: also called rhANG-2; rhANG-2-His; not shown: His tag
T2 sequence (looked up): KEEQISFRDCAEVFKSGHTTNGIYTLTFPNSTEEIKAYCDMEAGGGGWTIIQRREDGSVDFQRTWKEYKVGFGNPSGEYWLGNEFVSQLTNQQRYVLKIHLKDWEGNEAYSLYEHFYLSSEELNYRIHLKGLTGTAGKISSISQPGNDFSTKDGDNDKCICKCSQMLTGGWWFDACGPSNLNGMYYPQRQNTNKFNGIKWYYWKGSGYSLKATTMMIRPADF
Description: ELISA on rhANG-2; biotinylated anti-VpreB antibody and streptavidin-HRP detection. As to the method:
SgG1 was diluted in blocking buffer at a starting concentration of 10 nM. Sab and scSv were diluted in blocking buffer at a starting concentration of 100 nM. They were then 1:3 serial diluted.
(In general: ELISA stands for enzyme-linked immunosorbent assay.)

T1 sequence (P15692 other isoform, or with tags, fused parts or gaps limits assumed): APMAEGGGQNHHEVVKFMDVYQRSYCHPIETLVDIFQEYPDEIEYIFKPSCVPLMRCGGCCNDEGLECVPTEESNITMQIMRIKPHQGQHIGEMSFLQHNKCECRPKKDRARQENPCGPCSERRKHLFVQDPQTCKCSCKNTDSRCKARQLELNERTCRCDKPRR

B1: RP-014_VEGF-A_Sab (Fab, V domains shown)
VH: QVQLVQSGAEVKKPGASVKVSCKASGYTFSIYTIHWVRQAPGQGLEWMGGINPYNGNTKYAQKFQGRVTMTRDTSISTAYMELSRLRSDDTAVYYCAKAPAVFWWTGLDYWGQGTLVTVSS
VL: QPVLHQPPAMSSALGTTIRLTCTLRNDHDIGVYSVYWYQQRPGHPPRFLLRYFSQSDKSQGPQVPPRFSGSKDVARNRGYLSISELQPEDEAMYYCAMGARSSVTHVFGSGTQLTVLS
notes: also called anti-VEGF-A Sab; not shown: CH1 domain
A word on the EC50: it is the concentration needed to bring the measured effect to its halfway point. On to B1, for which the EC50 in test [1] was 6.3 pM.

B2: RP-017_ANG-2_Sab (Fab, V domains shown)
VH: EVQLVESGGGLVKPGGSLRLSCAASGFTFSSYGMHWVRQAPGKGLEWVAGISADSGDKNYADSVKGRFTISRDNAKNSLYLQMNSLRAEDTAVYYCAKEFISWIYTFDYLDYWGQGTLVTVSS
VL: B1 VL
notes: also called anti-ANG-2 Sab; not shown: CH1 domain
For B2, in test [2], the EC50 stood at 48.5 pM.
